Data as given in patent publication US20220049019A1.

What was measured:
FcγRIIIa = FcγRIIIa (UniProt P08637); assay: competitive TR-FRET
FcγRIIa = FcγRIIa (UniProt P12318); assay: competitive TR-FRET
FcγRIIb receptor [1] = biological target: FcγRIIb receptor (UniProt P31994); assay: competitive TR-FRET
FcγRIIb receptor [2] = biological target: FcγRIIb receptor (UniProt P31994); assay: cell based competitive TR-FRET (CisBio); displacement of a fluorescently labeled antibody from the cell surface receptor

Substance: Construct 4-FcγRIIb+ mutant (from UniProt P01857 27-328; P0DOX5 223-448)
- EC50 (FcγRIIIa): 26.7 nM
- EC50 (FcγRIIa): 0.126 nM
- EC50 (FcγRIIb receptor [1]): 0.0165 nM
- fold increase in binding against the Construct 4 (SIF3) control (FcγRIIb receptor [2]): > 300 fold
